Source: IntAct's records for PubMed 16782870

B1: Proliferating cell nuclear antigen (Saccharomyces cerevisiae), P15873 (parent)
chain: MLEAKFEEASLFKRIIDGFKDCVQLVNFQCKEDGIIAQAVDDSRVLLVSLEIGVEAFQEYRCDHPVTLGMDLTSLSKILRCGNNTDTLTLIADNTPDSIILLFEDTKKDRIAEYSLKLMDIDADFLKIEELQYDSTLSLPSSEFSKIVRDLSQLSDSINIMITKETIKFVADGDIGSGSVIIKPFVDMEHPETSIKLEMDQPVDLTFGAKYLLDIIKGSSLSDRVGIRLSSEAPALFQFDLKSGFLQFFLAPKFNDEE
B2: Minichromosome maintenance protein 10 (Saccharomyces cerevisiae), P32354 (parent)
chain: MNDPREILAVDPYNNITSDEEDEQAIARELEFMERKRQALVERLKRKQEFKKPQDPNFEAIEVPQSPTKNRVKVGSHNATQQGTKFEGSNINEVRLSQLQQQPKPPASTTTYFMEKFQNAKKNEDKQIAKFESMMNARVHTFSTDEKKYVPIITNELESFSNLWVKKRYIPEDDLKRALHEIKILRLGKLFAKIRPPKFQEPEYANWATVGLISHKSDIKFTSSEKPVKFFMFTITDFQHTLDVYIFGKKGVERYYNLRLGDVIAILNPEVLPWRPSGRGNFIKSFNLRISHDFKCILEIGSSRDLGWCPIVNKKTHKKCGSPINISLHKCCDYHREVQFRGTSAKRIELNGGYALGAPTKVDSQPSLYKAKGENGFNIIKGTRKRLSEEEERLKKSSHNFTNSNSAKAFFDEKFQNPDMLANLDNKRRKIIETKKSTALSRELGKIMRRRESSGLEDKSVGERQKMKRTTESALQTGLIQRLGFDPTHGKISQVLKSSVSGSEPKNNLLGKKKTVINDLLHYKKEKVILAPSKNEWFKKRSHREEVWQKHFGSKETKETSDGSASDLEII
B3: Proliferating cell nuclear antigen (Saccharomyces cerevisiae), P15873 (parent)
chain: B1 chain
partner: B2 chain

Variants of: B1
Settings: with dpod3_yeast POL32, P47110
Chain of dpod3_yeast POL32, P47110 (P47110 whole entry): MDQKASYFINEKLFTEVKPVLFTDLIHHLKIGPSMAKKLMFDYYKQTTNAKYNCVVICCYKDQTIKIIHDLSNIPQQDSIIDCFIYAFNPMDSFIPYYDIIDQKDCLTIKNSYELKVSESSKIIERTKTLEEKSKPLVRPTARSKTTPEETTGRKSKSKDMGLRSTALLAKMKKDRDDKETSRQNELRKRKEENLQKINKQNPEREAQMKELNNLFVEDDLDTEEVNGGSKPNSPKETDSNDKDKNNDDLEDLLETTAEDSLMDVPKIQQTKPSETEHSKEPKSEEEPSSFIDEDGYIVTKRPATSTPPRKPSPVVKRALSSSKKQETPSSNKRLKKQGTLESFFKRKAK

| effect of a mutation on the interaction | Variant |
| --- | --- |
| decreasing interaction | Y133L |
| decreasing interaction | Y133A |
| decreasing interaction | A251V |

Variants of: B2
Settings: with pcna_yeast POL30, P15873

| effect of a mutation on the interaction | Variant |
| --- | --- |
| disrupting interaction | Y245A |
| disrupting interaction | L242A |
| decreasing interaction | L242Y |

Variants of: B3
Settings: with mcm10_yeast MCM10, P32354

| effect of a mutation on the interaction | Variant |
| --- | --- |
| disrupting interaction | A251V |
| decreasing interaction | Y133A |
